Data as given in EP4717714A1 (Shanghai Junshi Biosciences Co., Ltd., dated 2026).

Experiments:
[1] = target: T1, Recombinant human VEGFA (Sino Biological, catalog number 11066-HNAB) (human); assay: indirect ELISA, human VEGFA coated at 0.5 µg/mL (FIG. 7b)
T1 construct: also called VEGF antigen; Human/Cynomolgus VEGF/VEGFA/VEGF165 Protein
T1 chain: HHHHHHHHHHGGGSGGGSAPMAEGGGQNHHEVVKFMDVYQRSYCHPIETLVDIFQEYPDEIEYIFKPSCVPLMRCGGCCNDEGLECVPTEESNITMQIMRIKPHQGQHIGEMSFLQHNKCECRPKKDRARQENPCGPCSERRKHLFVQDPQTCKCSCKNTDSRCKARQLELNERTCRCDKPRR

[2] = target: T1, Recombinant human VEGFA (Sino …); assay: BLI (Octet), antibody captured at 5 µg/mL, VEGFA at 25 and 12.5 nM
[3] = target: T1, Recombinant human VEGFA (Sino …); assay: BLI (Octet RED96e), told of the group
[4] = target: T2, Recombinant human PD-1 (prepared by Suzhou Junmeng Biopharm Co., Ltd. according to the sequence of NCBI … (human, UniProt Q15116 25-170, limits assumed)); assay: indirect ELISA, human PD-1 coated at 0.3 µg/mL (FIG. 6b)
T2 construct: Soluble recombinant protein used in BLI and coated in ELISA; also called antigen PD-1

[5] = target: Human PD-1 on the cell surface (Jurkat PD-1 effector cells, Promega); CD4 T cells in the mixed lymphocyte … (human, UniProt Q15116 25-288); assay: cell-based or functional assay
[6] = target: T1, Recombinant human VEGFA (Sino …); assay: cell-based or functional assay
[7] = target: T1, Recombinant human VEGFA (Sino …); assay: indirect ELISA on coated human VEGFA, relative to Avastin control
[8] = target: T2, Recombinant human PD-1 (prepared by …); assay: indirect ELISA on coated human PD-1, relative to TAB001 (JS001) control
[9] = target: T2, Recombinant human PD-1 (prepared by …); assay: competitive ELISA against PD-L1 hFc on coated PD-1, relative to TAB001 (JS001) control
[10] = target: T1, Recombinant human VEGFA (Sino …); assay: competitive ELISA, VEGFA coated, competitor biotinylated VEGFR2 at 0.3 µg/mL (FIG. 8b)
[11] = target: T1, Recombinant human VEGFA (Sino …); assay: competitive ELISA against VEGFR2 on coated VEGFA, relative to Avastin control
[12] = target: T2, Recombinant human PD-1 (prepared by …); assay: BLI (Octet RED96e), antibody captured at 5 µg/mL, PD-1 at 210 and 70 nM
[13] = target: T2, Recombinant human PD-1 (prepared by …); assay: competitive ELISA, PD-1 coated, competitor Biotin-PD-L1 hFc at 4.0 µg/mL (FIG. 9b)

B1: Bispecific antibody molecule 28 (bispecific antibody, human IgG4 S228P, kappa)
light: EVQLVESGGGLVQPGGSLRLSCAISGFSLAATDIDWVRQAPGKGLEWVARIFSPSDFTDYADSVKGRFTISADTSKNTVYLQMNSLRAEDTAVYYCGRPDTYAYNIFLDTPTYNALHYRGQGTLVTVSSGGGGSGGGGSGGGGSDVVMTQSPLSLPVTLGQPASISCRSSQSIVHSNGNTYLEWYLQKPGQSPQLLIYKVSNRFSGVPDRFSGSGSGTDFTLKISRVEAEDVGVYYCFQGSHVPLTFGQGTKLEIKRTVAAPSVFIFPPSDEQLKSGTASVVCLLNNFYPREAKVQWKVDNALQSGNSQESVTEQDSKDSTYSLSSTLTLSKADYEKHKVYACEVTHQGLSSPVTKSFNRGEC
heavy: not shown
notes: Anti-PD-1 IgG4 (JS001) with the anti-VEGF VHH at the N-terminus of each light chain; also called Antibody 28; antibody 28 (IgG4)
- EC50 [1]: 6.17 nM
- Kd [2]: 0.0147 nM
- koff [2]: 1.88e-05 s⁻¹
- kon [2]: 1.28e+06 M⁻¹ s⁻¹
- Kd [3]: < 0.5 nM
- EC50 [4]: 59.5 nM
- EC50, PD-1/PD-L1 luciferase reporter gene system (Jurkat PD-1 / CHO PD-L1) [5]: 26.1 nM
- IC50, VEGFA-induced proliferation of HUVEC cells [6]: 150 nM
- Relative binding activity (%) [7]: 57%
- Relative binding activity (%) [8]: 31%
- Relative binding activity (%) [9]: 45%
- IC50 [10]: 1860 nM
- Relative binding activity (%) [11]: 163%
- Kd [12]: 1.67 nM
- koff [12]: 5.96e-05 s⁻¹
- kon [12]: 35800 M⁻¹ s⁻¹
- IC50 [13]: 573 nM
